System: primary cells of intestinal cancer
Test: Effect of single additives in Basic Medium on proliferation of primary cells of intestinal cancer (cell count)
Assay type: cell-based, human
Design: key: +: compared with the Basic Medium, the medium added with the additive(s) has the effect of promoting the proliferation of primary cells of intestinal cancer isolated from intestinal cancer tissue in at least two cases; −: the medium added with the additive(s) has the effect of inhibiting the proliferation of primary cells of intestinal cancer isolated from intestinal cancer tissue in at least one case; ∘: the medium added with the additive(s) has no significant effect on the proliferation of primary cells of intestinal cancer isolated from intestinal cancer tissue in at least two cases
Details: additive at the final concentration in Basic Medium; samples OE0042 and OE(E)003; 7-10 days; compared with Basic Medium
Procedure: First, Basic Medium was prepared. The formulation of Basic Medium is: DMEM/F12 medium (purchased from Corning)+5 μM Y27632 (purchased from MCE)+5% (v/v) fetal bovine serum (purchased from Excell Bio)+100 μg/mL Primocin (purchased from InvivoGen, 0.2% (v/v), the concentration of commercial product is 50 mg/ml).
Different types of additives (see Table 1) were added to the Basic Medium to prepare the culture mediums for primary cells of intestinal cancer containing different components.
The culture mediums of different components as shown in Table 1 were added into a 48-well plate at a volume of 1 mL/well. Primary cells of intestinal cancer isolated from two cases of intestinal cancer tissues (numbered OE0042 and OE(E)003) according to the above step (2) were inoculated into the 48-well culture plate at a cell density of 3×10^4 cells/well, and were cultured at 37° C., under 5% CO2 concentration. After culturing for 7-10 days, when the cells grew to 85%, the culture medium was discarded, and 100 μL/well of 0.05% trypsin (purchased from Gibco) was used to rinse the cells once. After the trypsin was removed, 200 μL of 0.05% trypsin was added to each well. The plate was then placed in a 37° C., 5% CO2 incubator for 10 minutes, and the cells were observed under a microscope (CNOPTEC, BDS400), showing that the cells had completely digested. 300 μL of DMEM/F12 medium containing 10% serum (Excell Bio, FND500) was added to stop the digestion. 20 μL of the resultant was added into a cell counting plate (Countstar, specification: 50 pieces/box), and the total number of cells was counted with a cell counter (Countstar, IC1000). Specifically, Basic Medium without any additives was used as an experimental control, and the experimental results are shown in Table 1.

Molecule	Level of promoting cell proliferation
FGF10: medium additive from sino biological (protein, UniProt O15520 38-208, looked up) Fibroblast growth factor 10: QALGQDMVSPEATNSSSSSFSSPSSAGRHVRSYNHLQGDVRWRKLFSFTKYFLKIEKNGKVSGTKKENCPYSILEITSVEIGVVAVKAINSNYYLAMNKKGKLYGSKEFNNDCKLKERIEENGYNTYASFNWQHNGRQMYVALNGKGAPRRGQKTRRKNTSAHFLPMVVHS	−
Noggin: medium additive from R&D (protein, UniProt Q13253 28-232, looked up) Noggin: QHYLHIRPAPSDNLPLVDLIEHPDPIFDPKEKDLNETLLRSLLGGHYDPGFMATSPPEDRPGGGGGAAGGAEDLAELDQLLRQRPSGAMPSEIKGLEFSEGLAQGKKQRLSKKLRRKLQMWLWSQTFCPVLYAWNDLGSRFWPRYVKVGSCFSKRSCSVPEGMVCKPSKSVHLTVLRWRCQRRGGQRCGWIPIQYPIISECKCSC	∘
KGF: medium additive from R&D (protein, UniProt P21781 32-194, looked up) Fibroblast growth factor 7: CNDMTPEQMATNVNCSSPERHTRSYDYMEGGDIRVRRLFCRTQWYLRIDKRGKVKGTQEMKNNYNIMEIRTVAVGIVAIKGVESEFYLAMNKEGKLYAKKECNEDCNFKELILENHYNTYASAKWTHNGGEMFVALNQKGIPVRGKKTKKEQKTAHFLPMAIT	∘
IL-22: medium additive from Peprotech (protein, UniProt Q9GZX6 34-179, looked up) Interleukin-22: APISSHCRLDKSNFQQPYITNRTFMLAKEASLADNNTDVRLIGEKLFHGVSMSERCYLMKQVLNFTLEEVLFPQSDRFQPYMQEVVPFLARLSNRLSTCHIEGDDLHIQRNVQKLKDTVKKLGESGEIKAIGELDLLFMSLRNACI	−
R-spondin1: medium additive, R-spondin family protein from R&D (protein, UniProt Q2MKA7 21-263, looked up) R-spondin-1: SRGIKGKRQRRISAEGSQACAKGCELCSEVNGCLKCSPKLFILLERNDIRQVGVCLPSCPPGYFDARNPDMNKCIKCKIEHCEACFSHNFCTKCKEGLYLHKGRCYPACPEGSSAANGTMECSSPAQCEMSEWSPWGPCSKKQQLCGFRRGSEERTRRVLHAPVGDHAACSDTKETRRCTVRRVPCPEGQKRRKGGQGRRENANRNLARKESKEAGAGSRRRKGQQQQQQQGTVGPLTSAGPA	∘

Source: patent publication US12590951B2, “Culture medium and culture method for primary cells of intestinal cancer” (PRECEDO PHARMACEUTICALS CO., LTD, priority 2021, dated 2026)
